Measured values as given in patent publication US20210388087A1 (Chugai, published 2021).
Substitutions are numbered along the chain they refer to. Names and notes keep the numbering of the source.

T1: Human CD3eg linker (human)
T1 construct: Single-chain construct; also called recombinant human CD3
T1 chain: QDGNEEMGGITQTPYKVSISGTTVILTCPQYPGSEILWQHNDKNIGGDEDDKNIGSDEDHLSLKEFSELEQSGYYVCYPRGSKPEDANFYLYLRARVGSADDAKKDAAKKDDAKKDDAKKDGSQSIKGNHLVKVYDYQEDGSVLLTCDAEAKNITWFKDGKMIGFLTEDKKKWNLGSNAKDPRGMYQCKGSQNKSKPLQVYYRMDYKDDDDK

B1: H183/L072 VL F55L (antibody, name in Kabat numbering, V domains shown)
VH: QVQLVESGGGLVQPGRSLRLSCAASGFTFSNAWMHWVRQAPGKGLEWVAQIKDKGNAYAAYYAPSVKGRFTISRDDSKNSIYLQMNSLKTEDTAVYYCHYVHYASASTVLPAFGVDAWGQGTTVTVSS
VL: DIVMTQSPLSLPVTPGEPASISCQASQELVHMNRNTYLHWYQQKPGQAPRLLIYKVSNRLPGVPDRFSGSGSGTDFTLKISRVEAEDVGVYYCAQGTSVPFTFGQGTKLEIK
B2: H183/L072 VL K50E (antibody, name in Kabat numbering, V domains shown)
VH: B1 VH
VL: B1 VL with K55E, L60F
B3: H183/L072 VL H34S (antibody, name in Kabat numbering, V domains shown)
VH: B1 VH
VL: B1 VL with H39S, L60F
B4: H183/L072 VL H34T (antibody, name in Kabat numbering, V domains shown)
VH: B1 VH
VL: B1 VL with H39T, L60F
B5: H183/L072 VL F96E (antibody, name in Kabat numbering, V domains shown)
VH: B1 VH
VL: B1 VL with L60F, F101E
B6: H183/L072 VL F96T (antibody, name in Kabat numbering, V domains shown)
VH: B1 VH
VL: B1 VL with L60F, F101T
B7: H183/L072 VL F96Q (antibody, name in Kabat numbering, V domains shown)
VH: B1 VH
VL: B1 VL with L60F, F101Q
B8: H183/L072 VL G91T (antibody, name in Kabat numbering, V domains shown)
VH: B1 VH
VL: B1 VL with L60F, G96T
B9: H183/L072 VL F55M (antibody, name in Kabat numbering, V domains shown)
VH: B1 VH
VL: B1 VL with L60M
B10: H183/L072 VL G91S (antibody, name in Kabat numbering, V domains shown)
VH: B1 VH
VL: B1 VL with L60F, G96S
B11: H183/L072 VL H34Q (antibody, name in Kabat numbering, V domains shown)
VH: B1 VH
VL: B1 VL with H39Q, L60F
B12: H183/L072 VL G91Q (antibody, name in Kabat numbering, V domains shown)
VH: B1 VH
VL: B1 VL with L60F, G96Q
B13: H183/L072 VL G91H (antibody, name in Kabat numbering, V domains shown)
VH: B1 VH
VL: B1 VL with L60F, G96H
B14: H183/L072 VL K50D (antibody, name in Kabat numbering, V domains shown)
VH: B1 VH
VL: B1 VL with K55D, L60F
B15: H183/L072 VL H27dQ (antibody, name in Kabat numbering, V domains shown)
VH: B1 VH
VL: B1 VL with H31Q, L60F
B16: H183/L072 VL F55S (antibody, name in Kabat numbering, V domains shown)
VH: B1 VH
VL: B1 VL with L60S
B17: H183/L072 VL H34E (antibody, name in Kabat numbering, V domains shown)
VH: B1 VH
VL: B1 VL with H39E, L60F
B18: H183/L072 VL F55Q (antibody, name in Kabat numbering, V domains shown)
VH: B1 VH
VL: B1 VL with L60Q
B19: H183/L072 VL H34A (antibody, name in Kabat numbering, V domains shown)
VH: B1 VH
VL: B1 VL with H39A, L60F
B20: H183/L072 VL G91E (antibody, name in Kabat numbering, V domains shown)
VH: B1 VH
VL: B1 VL with L60F, G96E
B21: H183/L072 VL F96D (antibody, name in Kabat numbering, V domains shown)
VH: B1 VH
VL: B1 VL with L60F, F101D
B22: H183/L072 VL H34G (antibody, name in Kabat numbering, V domains shown)
VH: B1 VH
VL: B1 VL with H39G, L60F
B23: H183/L072 VL H27dS (antibody, name in Kabat numbering, V domains shown)
VH: B1 VH
VL: B1 VL with H31S, L60F
B24: H183/L072 VL F55R (antibody, name in Kabat numbering, V domains shown)
VH: B1 VH
VL: B1 VL with L60R
B25: H183/L072 VL G91D (antibody, name in Kabat numbering, V domains shown)
VH: B1 VH
VL: B1 VL with L60F, G96D
B26: H183/L072 VL H27dK (antibody, name in Kabat numbering, V domains shown)
VH: B1 VH
VL: B1 VL with H31K, L60F
B27: H183/L072 VL F55P (antibody, name in Kabat numbering, V domains shown)
VH: B1 VH
VL: B1 VL with L60P
B28: H183/L072 VL F55N (antibody, name in Kabat numbering, V domains shown)
VH: B1 VH
VL: B1 VL with L60N
B29: H183/L072 VL H27dF (antibody, name in Kabat numbering, V domains shown)
VH: B1 VH
VL: B1 VL with H31F, L60F
B30: H183/L072 VL H27dN (antibody, name in Kabat numbering, V domains shown)
VH: B1 VH
VL: B1 VL with H31N, L60F
B31: H183/L072 VL H34N (antibody, name in Kabat numbering, V domains shown)
VH: B1 VH
VL: B1 VL with H39N, L60F
B32: H183/L072 VL H34D (antibody, name in Kabat numbering, V domains shown)
VH: B1 VH
VL: B1 VL with H39D, L60F
B33: H183/L072 VL F55T (antibody, name in Kabat numbering, V domains shown)
VH: B1 VH
VL: B1 VL with L60T
B34: H183/L072 VL H34L (antibody, name in Kabat numbering, V domains shown)
VH: B1 VH
VL: B1 VL with H39L, L60F
B35: H183/L072 VL F55V (antibody, name in Kabat numbering, V domains shown)
VH: B1 VH
VL: B1 VL with L60V
B36: H183/L072 VL F96H (antibody, name in Kabat numbering, V domains shown)
VH: B1 VH
VL: B1 VL with L60F, F101H
B37: H183/L072 VL H27dE (antibody, name in Kabat numbering, V domains shown)
VH: B1 VH
VL: B1 VL with H31E, L60F
B38: H183/L072 VL F55W (antibody, name in Kabat numbering, V domains shown)
VH: B1 VH
VL: B1 VL with L60W
B39: H183/L072 VL H27dG (antibody, name in Kabat numbering, V domains shown)
VH: B1 VH
VL: B1 VL with H31G, L60F
B40: H183/L072 VL H34K (antibody, name in Kabat numbering, V domains shown)
VH: B1 VH
VL: B1 VL with H39K, L60F
B41: H183/L072 VL H27dT (antibody, name in Kabat numbering, V domains shown)
VH: B1 VH
VL: B1 VL with H31T, L60F
B42: H183/L072 VL G91K (antibody, name in Kabat numbering, V domains shown)
VH: B1 VH
VL: B1 VL with L60F, G96K
B43: H183/L072 VL F96K (antibody, name in Kabat numbering, V domains shown)
VH: B1 VH
VL: B1 VL with L60F, F101K
B44: H183/L072 VL H27dD (antibody, name in Kabat numbering, V domains shown)
VH: B1 VH
VL: B1 VL with H31D, L60F
B45: H183/L072 VL F96S (antibody, name in Kabat numbering, V domains shown)
VH: B1 VH
VL: B1 VL with L60F, F101S

Target: T1, Human CD3eg linker
Test: SPR; fold vs parent H183/L072

Row | fold change of affinity [fold] | Binder
1 | 2.9 | B1
2 | 0 | B2
3 | 0.5 | B3
4 | 0.4 | B4
5 | 0 | B5
6 | 0 | B6
7 | 0 | B7
8 | 0 | B8
9 | 3.6 | B9
10 | 0 | B10
11 | 0 | B11
12 | 0 | B12
13 | 0 | B13
14 | 0 | B14
15 | 0 | B15
16 | 6.6 | B16
17 | 0 | B17
18 | 2.9 | B18
19 | 0.6 | B19
20 | 0 | B20
21 | 0 | B21
22 | 0.3 | B22
23 | 0 | B23

Row | fold change of affinity [fold] | Binder
24 | 4 | B24
25 | 0 | B25
26 | 0 | B26
27 | 8.1 | B27
28 | 3.9 | B28
29 | 0.2 | B29
30 | 0 | B30
31 | 0.2 | B31
32 | 0 | B32
33 | 4.2 | B33
34 | 0 | B34
35 | 4.4 | B35
36 | 0 | B36
37 | 0 | B37
38 | 0.2 | B38
39 | 0 | B39
40 | 0.4 | B40
41 | 0 | B41
42 | 0 | B42
43 | 0 | B43
44 | 0 | B44
45 | 0 | B45
